Results as given in US20240382559A1, “PHARMACEUTICAL COMPOSITION COMPRISING KAI1 POLYPEPTIDE FOR INHIBITION OF HEPATIC FIBROSIS AND USE THEREOF” (PUSAN NATIONAL UNIVERSITY INDUSTRY-UNIVERSITY COOPERATION …, priority 2021, published 2024).

Legend:
[1] = system: mouse liver cell line (AML12); test: qPCR of fibrosis-related genes in TGF-β1-treated liver cell line, rhKAI1 / pepKAI1 WT / pepKAI1 Mut; assay type: cell-based; settings: 200 or 500 ng/mL for 2 hours, then TGF-β1 2 ng/ml 24 hours
Protocol: The effect of wild type KAI1 peptide (pepKAI1 WT) or mutant KAI1 peptide (pepKAI1 Mut) on fibrosis induced by treatment with TGF-β1 was confirmed in mouse liver cell line (AML12).
Specifically, the AML 12 cells were treated with recombinant human KAI1 protein (rhKAI1), wild type KAI1 peptide (pepKAI1 WT), and mutant KAI1 peptide (pepKAI1 Mut) at a concentration of 200 ng/mL or 500 ng/mL, respectively, and reacted for 2 hours. Thereafter, the cells were treated with TGF-β1 at a concentration of 2 ng/ml and cultured for an additional 24 hours, and then the cells were collected. RNA from the collected cells was extracted with Trizol, cDNA was synthesized, and then changes in expression of fibrosis-related genes (α-SMA, Col1a1, TIMP1, Vimentin, TGF-β, and fibronectin) were confirmed by qPCR analysis.

[2] = system: acute hepatic fibrosis model mice; test: H&E staining of liver tissue in CCl4 acute hepatic fibrosis animal model; assay type: in vivo; settings: C57BL/6 male mice, CCl4 i.p. twice a week; 4 μg KAI1 protein i.p. per mouse on day 8, liver extracted day 11
Protocol: (§1) Specifically, 7-week-old C57BL/6 male mice was prepared, and CCl4 was diluted in corn oil at a concentration of 1 mL/kg. In order to induce acute liver injury, the mice were injected intraperitoneally with the diluted CCl4 twice a week. As a control group, the mice were intraperitoneally injected with the same amount of the corn oil.
(§2) As a KAI1 protein, a polypeptide (Human CD82/KAI-1 Protein (His Tag), Sino Biological Inc.) comprising a KAI1 fragment comprising a polypeptide (extracellular domain, SEQ ID NO: 4) consisting of the 111st to 228th amino acid sequence from the N terminus in a polypeptide consisting of the amino acid sequence of SEQ ID NO: 1 was used. On the 8th day after the start of the experiment, 4 μg of KAI1 protein was injected intraperitoneally per mouse, and on the 11th day, the mice were sacrificed and liver tissue was extracted.
The liver tissue extracted in Example 2.1. was fixed in 10% (v/v) formalin solution. Thereafter, the liver tissue was embedded in paraffin and sectioned to a thickness of 4 μm to prepare tissue sections. After deparaffinization and superhydration, H&E (hematoxylin & eosin) staining was performed and observed under an optical microscope.

[3] = system: acute hepatic fibrosis model mice; test: qPCR of fibrosis-related genes in liver tissue of CCl4 acute hepatic fibrosis animal model; assay type: in vivo, mouse; settings: 4 μg KAI1 protein i.p. day 8, liver day 11, vs. CCl4
Protocol: as §1, §2
RNA was obtained from the liver tissue extracted in Example 2.1. The RNA from the liver tissue was obtained using Favorgen® Trizol according to the manufacturer's instructions. The RNA was reverse transcribed into cDNA using a cDNA synthesis kit (Bioneer corp.). Thereafter, real-time PCR (qPCR) was performed to confirm changes in the expression levels of fibrosis-related genes Col1a1 (collagen type 1), fibronectin, and TGFβ1 (transforming growth factor-β1).

liver cell line (AML12) = test: qPCR of fibrosis-related genes in TGF-β1-treated liver cell line, KAI1 protein; assay type: cell-based, mouse; settings: 200 or 500 ng/mL for 2 hours, then TGF-β1 2 ng/mL 24 hours
Protocol: In order to confirm the activity of KAI1protein to inhibit hepatic fibrosis at the cellular level, the liver cell line (AML12), which had hepatic fibrosis induced by treatment with TGF-β1, was treated with KAI1 protein to confirm changes in the expression of fibrosis-related genes.
Specifically, the AML 12 cells were cultured in DMEM/F12 medium containing 10% (v/v) fetal bovine serum (FBS), 1% (w/v) penicillin-streptomycin, 10 μg/mL insulin, 5.5 μg/mL transferrin, 5 ng/mL selenium, and 40 ng/ml dexamethasone. The AML12 cells were treated with KAI1 protein at a concentration of 200 ng/ml or 500 ng/mL, respectively, and reacted for 2 hours. Thereafter, the cells were treated with TGF-β1, a fibrosis-inducing cytokine, at a concentration of 2 ng/mL and cultured for an additional 24 hours, and then the cells were collected. RNA from the collected cells was extracted with Trizol, cDNA was synthesized, and then changes in expression of fibrosis-related genes (α-SMA, Col1a1, TIMP1, and MMP9) were confirmed by qPCR analysis.

[4] = system: mouse liver cell line (AML12); test: Immunoblotting of ZO-1 (EMT) in TGF-β1-treated liver cell line; assay type: cell-based; settings: 500 ng/ml for 2 hours, then TGF-β1 24 or 48 hours
Protocol: The epithelial-mesenchymal transition (EMT) process has been proposed as one of the mechanisms of fibrosis. Therefore, the effect of KAI1 protein on the EMT process induced by TGF-1 in mouse liver cell line (AML12) was confirmed.
Specifically, the AML12 cells were treated with of KAI1 protein at a concentration of 500 ng/ml and reacted for 2 hours. Thereafter, the cells were treated with TGF-β1 and cultured for an additional 24 hours or 48 hours, and then the cells were collected. The collected cells were lysed in RIPA buffer containing protease inhibitors to extract proteins, and immunoblotting was performed by loading an equal amount of proteins. The protein expression level of ZO-1 was confirmed using an antibody of ZO-1 (anti-ZO antibody, 13663, Abcam), an epithelial biomarker during the EMT process. At this time, anti-tubulin antibody (T5168, Sigma-Aldrich) was used as an internal control, and HRP-conjugated anti-rabbit antibody (ADI-SAB-300-J, Enzo Life Sciences) was used as a secondary antibody.

[5] = system: human hepatic stellate cell line (LX2); test: Cell proliferation by MTS assay in hepatic stellate cell line; assay type: cell-based; settings: rhKAI1 200 or 500 ng/mL, 24 or 48 hours
Protocol: (§3) It is known that fibrosis occurs due to excessive proliferation and activation of hepatic stellate cells. Therefore, changes in fibrosis-related gene expression by treatment with KAI1 protein were confirmed in human hepatic stellate cell line (LX2).
(§4) Specifically, the LX2 cell line was treated with recombinant human KAI1 protein (rhKAI1) at a concentration of 200 ng/mL or 500 ng/mL, respectively. Thereafter, the cells were cultured for 24 hours or 48 hours and collected to confirm cell proliferation and fibrosis-related gene expression in the cells. The cell proliferation was measured using MTS assay. RNA from the collected cells was extracted with Trizol, cDNA was synthesized, and then changes in expression of fibrosis-related genes (α-SMA, Col1a1, Vimentin, TGF-β, and GFAP) were confirmed by qPCR analysis.

[6] = system: human hepatic stellate cell line (LX2); test: qPCR of fibrosis-related genes in hepatic stellate cell line; assay type: cell-based; settings: rhKAI1 200 or 500 ng/mL, 24 or 48 hours
Protocol: as §3, §4

[7] = system: human hepatic stellate cell line (LX2); test: Immunoblotting of fibrosis-related proteins in hepatic stellate cell line; assay type: cell-based; settings: 200 or 500 ng/mL, 24 or 48 hours, vs. untreated group
Protocol: as §4
The expression of fibrosis-related proteins was confirmed in human hepatic stellate cell line (LX2) treated with KAI1 protein in the same manner as in Example 4.1. At this time, anti-Vimentin antibody (sc-5565, Santa Cruz Biotech.), anti-Col1α1 antibody (NBP1-30054, Novus Biological), anti-α-SMA antibody (A5228, Sigma-Aldrich), anti-GFAP antibody (Z0334, Dako), and anti-GAPDH antibody (MCA4739, AbD Serptec) were used as primary antibodies, and HRP-conjugated anti-rabbit antibody (ADI-SAB-300-J, Enzo Life Sciences) and anti-mouse antibody (ADI-SAB-100-J) were used as secondary antibodies.

[8] = system: human hepatic stellate cell line (LX2); test: qPCR of senescence-related genes in hepatic stellate cell line; assay type: cell-based; settings: 200 or 500 ng/mL, 24 or 48 hours, vs. control group
Protocol: as §4
It is known that hepatic stellate cells can inhibit hepatic fibrosis by inducing senescence in the liver. Therefore, the expression of senescence-related genes (HGMA1, p16, p21 and p53, SIRT1) was confirmed in human hepatic stellate cell line (LX2) treated with KAI1 protein in the same manner as in Example 4.1.

[9] = system: human hepatic stellate cell line (LX2); test: Immunoblotting of senescence-related proteins in hepatic stellate cell line; assay type: cell-based; settings: 200 or 500 ng/mL, 24 or 48 hours, vs. untreated group
Protocol: as §4
The expression of senescence-related proteins was confirmed in human hepatic stellate cell line (LX2) treated with KAI1 protein in the same manner as in Example 4.1. At this time, anti-SIRT1 antibody (ab32441, Abcam), anti-p16 antibody (10883-1-ap, Protein tech.), and anti-GAPDH antibody (MCA4739, AbD Serptec) were used as primary antibodies, and HRP-conjugated anti-rabbit antibody (ADI-SAB-300-J, Enzo Life Sciences) and anti-mouse antibody (ADI-SAB-100-J) were used as secondary antibodies.

pepKAI1 Mut: mutant peptide with both Y*C and EED substituted with alanine, NRPEVTAPASCEVKGAAANS (SEQ ID NO: 3) (Mutant KAI1 polypeptide)
not reduced: expression of fibrosis-related genes (α-SMA, Col1a1, TIMP1, Vimentin, TGF-β, fibronectin) increased by TGF-β1 (qPCR) [1]

pepKAI1 WT: 20 amino acid functional KAI1 peptide with Y*C and EED motifs, NRPEVTYPCSCEVKGEEDNS (SEQ ID NO: 2) (Wild type KAI1 polypeptide)
further reduced: fibrosis-related gene expression compared to the group treated with rhKAI1 protein (qPCR) ([1]; comparison with rhKAI1)
reduced: expression of fibrosis-related genes (α-SMA, Col1a1, TIMP1, Vimentin, TGF-β, fibronectin) increased by TGF-β1 (qPCR) [1]

B1: KAI1 protein: Human CD82/KAI-1 Protein (His Tag), Sino Biological; comprises extracellular domain, amino acids 111 to 228 of SEQ ID NO: 1 (SEQ ID NO: 4) (protein)
chain: GKLKQEMGGIVTELIRDYNSSREDSLQDAWDYVQAQVKCCGWVSFYNWTDNAELMNRPEVTYPCSCEVKGEEDNSLSVRKGFCEAPGNRTQSGNHPEDWPVYQEGCMEKVQAWLQENL
modifications: His tag; Extracellular domain of recombinant human KAI1 protein
recovered: expression of ZO-1 protein reduced by TGF-β1 (immunoblotting) [4]
reduced: degree of cell damage and inflammatory cell infiltration (H&E staining of liver tissue) [2] | gene expression of Col1a1 in liver tissue (qPCR) [3] | gene expression of TGF-β1 in liver tissue (qPCR) [3] | gene expression of fibronectin in liver tissue (qPCR) [3] | expression of fibrosis-related genes (α-SMA, Col1a1, TIMP1, MMP9) increased by TGF-β1 (qPCR) (liver cell line (AML12)) | protein expression of Col1α1 (immunoblotting) [7] | protein expression of Vimentin (immunoblotting) [7] | protein expression of α-SMA (immunoblotting) [7] | expression of SIRT1, a senescence inhibition marker (qPCR) [8] | expression of SIRT1, a senescence inhibition marker protein (immunoblotting) [9]
increased: protein expression of GFAP (immunoblotting) [7] | expression of senescence marker gene HGMA1 (qPCR) [8] | expression of senescence marker gene p16 (qPCR) [8] | expression of senescence marker gene p21 (qPCR) [8] | expression of senescence marker gene p53 (qPCR) [8] | expression of p16, a senescence marker protein (immunoblotting) [9]
tendency to increase: gene expression of GFAP, marker gene for resting stellate cells (qPCR) [6]
significantly reduced: cell proliferation (MTS assay) [5] | gene expression of Col1a1 (qPCR) [6] | gene expression of TGF-β (qPCR) [6] | gene expression of Vimentin (qPCR) [6] | gene expression of α-SMA (qPCR) [6]
